The supplement of paper PMC12042874
± gives the uncertainty stated by the source.

Test: amyloid nucleation score (Sup35N fusion, yeast selection) (log enrichment); library NNK2; higher = more nucleation; inactive = no reads after selection
Summary of the method: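 Random libraries were run with three technical output replicates. In each, psi-negative yeast expressing Sup35N fused to peptides of 20 random codons were induced 24 hours with 100 μM copper sulfate and grown 7 days at 30°C on medium lacking adenine and uracil, and input and output plasmid inserts were Illumina-sequenced. The nucleation score is the DiMSum log enrichment of output over input reads, centred on the mode score of non-aggregating sequences, and sequences under 100 input reads were excluded.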

Substance	amyloid nucleation score
SCNQDYTDSLSRAELKVDSS	-1.07 ± 0.62
CNSRCEDWPWIERTPG	0.571 ± 0.47
RLKWKLEQNSSLLWGRYRTA	1.24 ± 0.14
LMYKNCCWFLA	8.256 ± 0.062
SLSWLWFLNSKSRMSTDISV	inactive
LFDGARINTVNECVYWNS	inactive
CFIRHISGK	-0.315 ± 0.63
SDVYLTICHFFGHNLKVLPR	1.38 ± 0.26
KFKFKESGFEVVSLGGMVTP	inactive
NFASFCPFFS	0.053 ± 0.39
RECIYFRFYSRWATLSFLNR	-0.368 ± 1
SVLELYRTSIFYLRLVSNLL	3.52 ± 0.079
DADIRQ	0.764 ± 0.47
SSLFMTIWDSFSPI	-0.186 ± 0.45
ISGFRPSAYWSVLNWNSSL	-1.78 ± 1.1
TVMLFIVHLPCDRTFYL	0.682 ± 0.45
GVLQTARRFPVPEGN	3.71 ± 0.12
KIISNSFCSPCINSILPSKM	6.826 ± 0.053
CCIRQCNMRIKADDQRRDVI	0.109 ± 0.53
YGTWKVRKCGLSIFGVGGPD	-0.303 ± 0.63
IFYCFGKLDA	5.18 ± 0.072
WRASK	3.23 ± 0.057
SLSFLKSGPLA	inactive
KYRYRLVQR	-0.656 ± 1.1
CFIKVAVNWQL	8.826 ± 0.057

Substance	amyloid nucleation score
VVILS	1.28 ± 0.29
FLRIVSNVLKWQRA	2.83 ± 0.069
FTKVFRLHYFMRLTSMYVAF	-0.567 ± 1.1
MDPVWVYADFWMF	-0.78 ± 1.1
YLWDTIYIDLSVLLVLATSW	0.21 ± 0.54
FTPIGIIMYSFFKRTFTFVT	-1.06 ± 1.1
MFEVWFLESRHFINWGICSS	inactive
CSFSYGMYSK	0.401 ± 0.23
TAAPSEVMPIMALRPPKESS	-0.541 ± 0.79
SRNSLLRS	-0.924 ± 0.45
TNADGRTGT	-0.385 ± 0.39
RSCYNFGKGLCVFMTLARLW	-0.82 ± 0.48
LPIPIKETHLSCWAVDVGFD	-0.052 ± 0.2
NYIESFMHSQGCNPFQDSFM	3 ± 0.12
CPSLRGVVVRSLSTGSSDAR	0.163 ± 0.56
RKATQIPMSVSMER	1.45 ± 0.4
KWDHPKEVFCSVRTSGRGVE	2.04 ± 0.072
VWYRLTDAVYKRLTFLDII	-0.416 ± 0.56
YLGCRDPTRCFLLVHVPDLY	-0.127 ± 1
SLCPCLMIIS	-0.852 ± 0.38
SPHASMTIVIF	1.04 ± 0.22
DKANRDQWHQAKSSVCFGGV	0.089 ± 0.56
VNRSTELHFIVMREMVWLKS	-0.287 ± 0.62
RLMHGRIRPLNSKWLTGLG	1.11 ± 0.34
FYSFLINVPQCPER	0.636 ± 0.81

Substance	amyloid nucleation score
WTCDCSLKVFCNM	4.91 ± 0.056
LRRASINCKMLGGDVGQVMW	0.404 ± 0.66
CIRTDFGA	-0.086 ± 0.35
TNSSRISLNLGVLRGAQKDS	-1.08 ± 0.45
WSMFLLRMAPMRMLTTINFV	-0.504 ± 0.33
ELYRCA	0.744 ± 0.22
NYSNFTIKYLNLKRTLLDL	-1.74 ± 0.64
RLIACIRIVSVVVNAVSLKG	1.79 ± 0.42
FKFTWRTFESNNLMVRVWLL	-1.29 ± 0.55
KTCSACVSIKICLLNDGGNW	9.63 ± 0.052
DVYVVIPNYGPQEWVSNYS	-0.341 ± 0.5
KLVGMPFSSVACNSFKHRSE	0.408 ± 0.16
RHPGPAL	0.857 ± 0.25
LPGSYNYKGSHSQTNWFLDK	-2.09 ± 1
FWFIRTRAGDWCPSSSPRMF	0.149 ± 0.23
MDWSSGSYGSLSSSHAIERF	-0.093 ± 0.79
SLRYLHFGVDHLS	3.94 ± 0.055
IAIFWSYWGDVIVYSGMVLE	-0.187 ± 0.55
SVLTCKLK	inactive
GYRYWRTACSALFRWSEMC	0.948 ± 0.26
LSMELNGYYILVCDLDFVTE	1.5 ± 0.16
SDDFTYSIYFMSWFFYGSYN	inactive
IWPMEWNCTMDYRSPWMRHR	2.06 ± 0.07
CKEYMMIFMTIIKVYLNTYL	-0.698 ± 0.78
DDASKKLYS	0.967 ± 0.15

Substance	amyloid nucleation score
SPNRQLVKFYFQTTYMVSRL	3.52 ± 0.071
VAEYGLENDWFLHWQICMNS	-0.618 ± 0.48
MMHEYAAGGLSSGLFWDMSG	-0.623 ± 0.63
HVKASGP	0.339 ± 0.35
PKRFVLGY	-1.55 ± 0.62
PMNFYYIAPNICGLREKLWS	3.62 ± 0.064
NWGMLLGCGGW	0.201 ± 0.8
KCMRFIL	-0.087 ± 1
HVVTCMRILFPSDKGSCFVK	-0.142 ± 0.37
VGVFNFAGTTTSVGVNVSYT	2.78 ± 0.1
NIPLLLMFHSTIWFKMHIWE	1.51 ± 0.11
VPGRYFSQELVFTLFLGMAK	-1.43 ± 0.61
SKDMCRRCCIRNLRRMSDSN	-0.443 ± 0.26
ASCVVRGQYAQMVYCWRTLG	-0.072 ± 0.23
QYSTFATNRVFSKAIMHLSG	-0.445 ± 0.36
LVYFKRRLPTRLIANRRMNG	-0.845 ± 0.76
MGGLNLCLWSSGLMLVGTGR	5.237 ± 0.043
SRVYRCGWLGS	0.274 ± 0.65
NTIQCY	inactive
LYSLYTYVKRYCASRVRHRY	0.688 ± 0.81
GLNLSREYYNLFEVEVHADT	-0.178 ± 0.55
HNRYYGVIYVSLKICKLAFR	6.476 ± 0.027
GTFIGVNLN	inactive
RKPRFIACMTSPCLALC	0.066 ± 0.5
ASHLWDGRSAWHTVLSLPVT	1.08 ± 0.18

Substance	amyloid nucleation score
IGLANSSVCFSAFVTWYSLH	inactive
VSMIVGSDNVPVSFETDVSV	1.01 ± 0.39
CHHGRYIQRVGYRLVPSAFQ	0.098 ± 1
ANVGYFVGW	0.873 ± 0.31
MSFVDEYCGGEVTISEPSMS	-0.545 ± 0.76
VAEVKRLHIYWRAPSFRSAN	-0.596 ± 0.79
NVVQMMSVEFMPMVHVSAIL	4.23 ± 0.063
KIDSICRYRGPINQLNINPF	0.417 ± 0.4
IHLWICSISYNAVSIRFTSY	1.42 ± 0.097
CNRQAAMKAPSETCDVVACF	4.52 ± 0.083
SARHSRDR	2.31 ± 0.066
QSVNCYNVNSDVCNKVYNDL	0.716 ± 0.42
TDLYTCDVLRVLVCAH	-0.011 ± 0.45
YGSFWTFRFLGT	4.12 ± 0.073
PHSRNRFLMFA	-0.488 ± 1
RMLGFD	-0.147 ± 1.1
RFLLQS	-0.39 ± 0.61
RADPVRVYSCVEVLGRALLG	inactive
YRGLTSLYLFNQV	-0.08 ± 0.23
IYSYYGCYLCRNCGLVKFSK	4.03 ± 0.07
GIRWQVATDSPRLSGYPLCT	3.46 ± 0.083
WWFLKLDGRLPKLWAFLTMG	-0.22 ± 0.23
SVNYFLRGHKPRVNVVPSVE	5.119 ± 0.046
TCYMVWSLYC	3.93 ± 0.067
ITIYQYTNYLYGSWCNHLML	0.157 ± 1

Substance	amyloid nucleation score
SYASWYCLYCKNSGQGFLFE	7.948 ± 0.026
TRYSILVDRRNRIFVVADPD	0.615 ± 0.32
IYPLWLMKSGIRLLCGKMCL	0.607 ± 0.34
CMLDA	-0.555 ± 0.76
TSWSLVVVKVDIWPNQSVWV	-0.391 ± 0.55
CILYKEACEIVIFPGFTVAN	-1.15 ± 1
KSEKTHRIAMLNMSLVSYMR	3.97 ± 0.053
STRVWWDSWMFWLNEK	-0.607 ± 1
NVCRVDMAEKFGSFRLCN	-0.846 ± 0.34
FFGICDVYSDMNFPIYTAY	inactive
VYGCGSCLNCVVCMERCG	9.094 ± 0.048
NEHYGRTMTN	-0.064 ± 1.1
KGRYSGEGEIAFLQRVVGSG	0.434 ± 0.41
GTTWRRINECCSRANKMAPV	0.029 ± 0.35
AVVFGRGPSGYTHPMFRWPC	-0.754 ± 1.1
FSDFGMSLRISAKVEWIAMG	-1.59 ± 0.78
YLWPALPR	0.142 ± 0.46
VGVLSEDIYCSAQPYLGRSG	0.331 ± 0.4
TNRGSQNGLMFFDRSWKGYG	-0.467 ± 0.5
DVIPRVMIKALT	0.063 ± 0.56
QELIK	0.574 ± 0.44
RQYFNVLDCWGIGVFGHKG	1.34 ± 0.3
RASVFF	inactive
NLSILTICMFLPVDFGI	6.525 ± 0.059
VGFISDNYYWYNPKVNGIWV	-0.834 ± 0.27

Substance	amyloid nucleation score
CSRKDYSYRVMKFVFCIYGL	6.45 ± 0.061
IKYNEVVVVRWEANGRFE	4 ± 0.063
LSCCSLIPTHPRPRDNVNEC	0.717 ± 0.23
GLAMFKYIMAIVRNF	-0.855 ± 0.37
SFCWRYMCRFVMDSFITVPR	-0.423 ± 0.34
MTLIAVDSLSYLWANDNRRG	0.353 ± 0.36
GKVGWDCCISQIYCLDLFIP	8.292 ± 0.047
FCGFMGTAPHMRPYVMPWLR	0.816 ± 0.46
IHLQIWAFFMLRIPPGRNKT	-0.636 ± 0.76
INGNFVIKKCYRGYVS	-0.557 ± 1.1
YSKNWYWCTDYARANTLYHG	-1.14 ± 1.1
VSLIFQIRLRHRLTGAQMKR	0.762 ± 0.37
SVDYLCFVFNGGRSSSECQY	7.755 ± 0.032
FMQPYTCRSDFDRK	0.052 ± 0.48
DKDCVGIVLLFGQCVSITLA	inactive
KFLHKQVFNFHVSGMNPMAS	5.75 ± 0.069
FISNYLMPV	2.1 ± 0.12
SKCVWIKDQNFFQVDTNESI	1.73 ± 0.34
RYSATLYPTVPPDPLSAWAL	3.8 ± 0.057
ECGPWKFDRIERDMNAVVER	2.46 ± 0.17
EFGYFYLAMKISTSRYKQNY	1.41 ± 0.14
